B1: 49 (protein)
chain: MQTLSIQHGTLVTMDQYRRVLGDSWVHVQDGRIVALGVHAESVPPPADRVIDARGKVVLPGFINAHTHVNQILLRGGPSHGRQFYDWLFNVLYPGQKAMRPEVAVAVRLYCAEAVRSGITTINEDADSAIYPGNIEAAMAVYGEVGVRVVYARMFFDRMDGRIQGYVDALKARSPQVELCSIMEETAVAKDRITALSDQYHGTAGGRISVWPAPATTTTVTVEGMRWAQAFARDRAVMWTLHMAESDHDERIIGGSPAEYMECYGLLDERLQVAHCVYFDRKDVRLLHRHNVKVASQVVSNAYLGSGVAPVPEMVERGMAVGIGTDNDNSCDSVNMIGDMKFMAHIHRAVHRDADVLTPEKILEMATIDGARSLGMDHEIGSIETGKRADLILLDLRHPQTTPHHHLAATIVFQAYGNEVDTVLIDGNVVMENRRLSFLPPERELAFLEEAQSRATAILQRANMVANPAWRSL
B2: 61 (protein)
chain: MQTLSIQHGTLVTMDQYRRVLGDSWVHVQDGRIVALGVHAESVPPPADRVIDARGKVVLPGFINAHTHVNQILLRGGPSHGRQFYDWLFNVLYPGQKAMRPEVAVAVRLYCAEAVRSGITTINEDADSAIYPGNIEAAMAVYGEVGVRVVYARMFFDRMDGRIQGYVDALKARSPQVELCSIMEETAVAKDRITALSDQYHGTAGGRISVWPAPATTTTVTVEGMRWAQAFARDRAVMWTLHMAESDHDERILGWSPAEYMECYGLLDERLQVAHCVYFDRKDVRLLHRHNVKVASQVVSNAYLGSGVAPVPEMVERGMAVGIGTDNDNSCDSVNMIGDMKFMAHIHRAVHRDADVLTPEKILEMATIDGARSLGMDHEIGSIETGKRADLILLDLRHPQTTPHHHLAATIVFQAYGNEVDTVLIDGNVVMENRRLSFLPPERELAFLEEAQSRATAILQRANMVANPAWRSL
B3: 57 (protein)
chain: MQTLSIQHGTLVTMDQYRRVLGDSWVHVQDGRIVALGVHAESVPPPADRVIDARGKVVLPGFINAHTHVNQILLRGGPSHGRQFYDWLFNVLYPGQKAMRPEVAVAVRLYCAEAVRSGITTINEDADSAIYPGNIEAAMAVYGEVGVRVVYARMFFDRMDGRIQGYVDALKARSPQVELCSIMEETAVAKDRITALSDQYHGTAGGRISVWPAPATTTTVTVEGMRWAQAFARDRAVMWTLHMAESDHDERILGGSPAEYMECYGLLDERLQVAHCVYFDRKDVRLLHRHNVKVASQVVSNAYLGSGVAPVPEMVERGMAVGIGTDNDNSCDSVNMIGDMKFMAHIHRAVHRDADVLTPEKILEMATIDGARSLGMDHEIGSIETGKRADLILLDLRHPQTTPHHHLAATIVFQAYGNEVDTVLIDGNVVMENRRLSFLPPERELAFLEEAQSRATAILQRANMVANPAWRSL
B4: 53 (protein)
chain: MQTLSIQHGTLVTMDQYRRVLGDSWVHVQDGRIVALGVHAESVPPPADRVIDARGKVVLPGFINAHTHVNQILLRGGPSHGRQFYDWLFNVLYPGQKAMRPEVAVAVRLYCAEAVRSGITTINEDADSAIYPGNIEAAMAVYGEVGVRVVYARMFFDRMDGRIQGYVDALKARSPQVELCSIMEETAVAKDRITALSDQYHGTAGGRISVWPAPATTTTVTVEGMRWAQAFARDRAVMWTLHMAESDHDERIIGWSPAEYMECYGLLDERLQVAHCVYFDRKDVRLLHRHNVKVASQVVSNAYLGSGVAPVPEMVERGMAVGIGTDNDNSCDSVNMIGDMKFMAHIHRAVHRDADVLTPEKILEMATIDGARSLGMDHEIGSIETGKRADLILLDLRHPQTTPHHHLAATIVFQAYGNEVDTVLIDGNVVMENRRLSFLPPERELAFLEEAQSRATAILQRANMVANPAWRSL
B5: 383 (protein)
chain: MQTLSIQHGTLVTMDQYRRVLGDSWVHVQDGRIVALGVHAESVPPPADRVIDARGKVVLPGFINAHTHVNQILLRGGPSHGRQLYDWLFNVLYPGQKAMRPEVAVAVRLYCAEAVRSGITTINEEADSAIYPGNIEAAMAVYGEVGVRVVYARMFFDRMDGRIQGYVDALKARSPQVELCSIMEETAVAKDRITALSDQYHGTAGGRISVWPAPATTTTVTVEGMRWAQAFARDRAVMWTLHMAESDHDERILGWSPAEYMECYGLLDERLQVAHCVYFDRKDVRLLHRHNVKVASQVVSNAYLGSGVAPVPEMVERGMAVGIGTDNNNSCDSVNMIGDMKFMAHIHRAVHRDADVLTPEKILEMATIDGARSLGMDHEIGSIETGKRADLILLDLRHPQTTPHHHLAATIVFQAYGNEVDTVLIDGNVVMENRRLSFLPPERELAFLEEAQSRATAILQRANMVANPAWRSL
B6: 504 (protein)
chain: MQTLSIQHGTLVTMDQYRRVLGDSWVHVQDGRIVALGVHAESVPPPADRVIDARGKVVLPGFINAHTHVNQILLRGGPSHGRQLYDWLFNVVYPGQKAMRPEVAVAVRLYCAEAVRSGITTINEEADSAIYPGNIEAAMAVYGEVGVRVVYARMFFDRMDGRIQGYVDALKARSPQVELCSIMEETAVAKDRITALSDQYHGTAGGRISVWPAPATTTTVTVEGMRWAQAFARDRAVMWTLHMAESDHDERIIGWSPAEYMECYGLLDERLQVAHCVYFDRKDVRLLHRHNVKVASQVVSNAYLGSGVAPVPEMVERGMAVGIGTDNNNSSDSVNMIGDMKFMAHIHRAVHRDADVLTPEKILEMATIDGARSLGMDHEIGSIETGKRADLILLDLRHPQTTPHHHLAATIVFQAYGNEVDTVLIDGNVVMENRRLSFLPPERELAFLEEAQSRATAILQRANMVANPAWRSL
B7: 508 (protein)
chain: MQTLSIQHGTLVTMDQYRRVLGDSWVHVQDGRIVALGVHAESVPPPADRVIDARGKVVLPGFINAHTHVNQILLRGGPSHGRQLYDWLFNVVYPGQKAMRPEVAVAVRLYCAEAVRSGITTINEEADSAIYPGNIEAAMAVYGEVGVRVVYARMFFDRMDGRIQGYVDALKARSPQVELCSIMEETAVAKDRITALSDQYHGTAGGRISVWPAPATTTTVTVEGMRWAQAFARDRAVMWTLHMAESDHDERILGGSPAEYMECYGLLDERLQVAHCVYFDRKDVRLLHRHNVKVASQVVSNAYLGSGVAPVPEMVERGMAVGIGTDNNNSSDSVNMIGDMKFMAHIHRAVHRDADVLTPEKILEMATIDGARSLGMDHEIGSIETGKRADLILLDLRHPQTTPHHHLAATIVFQAYGNEVDTVLIDGNVVMENRRLSFLPPERELAFLEEAQSRATAILQRANMVANPAWRSL
B8: 502 (protein)
chain: MQTLSIQHGTLVTMDQYRRVLGDSWVHVQDGRIVALGVHAESVPPPADRVIDARGKVVLPGFINAHTHVNQILLRGGPSHGRQLYDWLFNVVYPGQKAMRPEVAVAVRLYCAEAVRSGITTINEEADSAIYPGNIEAAMAVYGEVGVRVVYARMFFDRMDGRIQGYVDALKARSPQVELCSIMEETAVAKDRITALSDQYHGTAGGRISVWPAPATTTTVTVEGMRWAQAFARDRAVMWTLHMAESDHDERIIGWSPAEYMECYGLLDERLQVAHCVYFDRKDVRLLHRHNVKVASQVVSNAYLGSGVAPVPEMVERGMAVGIGTDNDNSSDSVNMIGDMKFMAHIHRAVHRDADVLTPEKILEMATIDGARSLGMDHEIGSIETGKRADLILLDLRHPQTTPHHHLAATIVFQAYGNEVDTVLIDGNVVMENRRLSFLPPERELAFLEEAQSRATAILQRANMVANPAWRSL
B9: 498 (protein)
chain: MQTLSIQHGTLVTMDQYRRVLGDSWVHVQDGRIVALGVHAESVPPPADRVIDARGKVVLPGFINAHTHVNQILLRGGPSHGRQLYDWLFNVVYPGQKAMRPEVAVAVRLYCAEAVRSGITTINEEADSAIYPGNIEAAMAVYGEVGVRVVYARMFFDRMDGRIQGYVDALKARSPQVELCSIMEETAVAKDRITALSDQYHGTAGGRISVWPAPATTTTVTVEGMRWAQAFARDRAVMWTLHMAESDHDERIIGGSPAEYMECYGLLDERLQVAHCVYFDRKDVRLLHRHNVKVASQVVSNAYLGSGVAPVPEMVERGMAVGIGTDNDNSSDSVNMIGDMKFMAHIHRAVHRDADVLTPEKILEMATIDGARSLGMDHEIGSIETGKRADLILLDLRHPQTTPHHHLAATIVFQAYGNEVDTVLIDGNVVMENRRLSFLPPERELAFLEEAQSRATAILQRANMVANPAWRSL
B10: 466 (protein)
chain: MQTLSIQHGTLVTMDQYRRVLGDSWVHVQDGRIVALGVHAESVPPPADRVIDARGKVVLPGFINAHTHVNQILLRGGPSHGRQLYDWLFNVVYPGQKAMRPEVAVAVRLYCAEAVRSGITTINEEADSAIYPGNIEAAMAVYGEVGVRVVYARMFFDRMDGRIQGYVDALKARSPQVELCSIMEETAVAKDRITALSDQYHGTAGGRISVWPAPATITTVTVEGMRWAQAFARDRAVMWTLHMAESDHDERIIGGSPAEYMECYGLLDERLQVAHCVYFDRKDVRLLHRHNVKVASQVVSNAYLGSGVAPVPEMVERGMAVGIGTDNDNSSDSVNMIGDMKFMAHIHRAVHRDADVLTPEKILEMATIDGARSLGMDHEIGSIETGKRADLILLDLRHPQTTPHHHLAATIVFQAYGNEVDTVLIDGNVVMENRRLSFLPPERELAFLEEAQSRATAILQRANMVANPAWRSL
B11: 482 (protein)
chain: MQTLSIQHGTLVTMDQYRRVLGDSWVHVQDGRIVALGVHAESVPPPADRVIDARGKVVLPGFINAHTHVNQILLRGGPSHGRQLYDWLFNVVYPGQKAMRPEVAVAVRLYCAEAVRSGITTINEEADSAIYPGNIEAAMAVYGEVGVRVVYARMFFDRMDGRIQGYVDALKARSPQVELCSIMEETAVAKDRITALSDQYHGTAGGRISVWPAPATTTPVTVEGMRWAQAFARDRAVMWTLHMAESDHDERIIGGSPAEYMECYGLLDERLQVAHCVYFDRKDVRLLHRHNVKVASQVVSNAYLGSGVAPVPEMVERGMAVGIGTDNDNSSDSVNMIGDMKFMAHIHRAVHRDADVLTPEKILEMATIDGARSLGMDHEIGSIETGKRADLILLDLRHPQTTPHHHLAATIVFQAYGNEVDTVLIDGNVVMENRRLSFLPPERELAFLEEAQSRATAILQRANMVANPAWRSL
B12: 512 (protein)
chain: MQTLSIQHGTLVTMDQYRRVLGDSWVHVQDGRIVALGVHAESVPPPADRVIDARGKVVLPGFINAHTHVNQILLRGGPSHGRQLYDWLFNVVYPGQKAMRPEVAVAVRLYCAEAVRSGITTINEEADSAIYPGNIEAAMAVYGEVGVRVVYARMFFDRMDGRIQGYVDALKARSPQVELCSIMEETAVAKDRITALSDQYHGTAGGRISVWPAPATTTTVTVEGMRWAQAFARDRAVMWTLHMAESDHDERILGWSPAEYMECYGLLDERLQVAHCVYFDRKDVRLLHRHNVKVASQVVSNAYLGSGVAPVPEMVERGMAVGIGTDNNNSSDSVNMIGDMKFMAHIHRAVHRDADVLTPEKILEMATIDGARSLGMDHEIGSIETGKRADLILLDLRHPQTTPHHHLAATIVFQAYGNEVDTVLIDGNVVMENRRLSFLPPERELAFLEEAQSRATAILQRANMVANPAWRSL

Test: High throughput mass spectrometry screen of triazine hydrolase library against about 15 triazine derivatives
Assay type: biochemical
Details: Table 5; the value is the triazine substrate the library member (atzA-based variant) is active on; preferred members, not exclusive

Substrate Activity, atratone:
B1
B2
B3
B4

Same assay, conditions: substrate ametryn; preferred substrates, not exclusive

Substrate Activity: ametryn, ametryn:
B5

Same assay, conditions: substrate(s) on which the triazine hydrolase library member shows activity; column indicates preferred embodiments and is not exclusive

Substrate Activity, propazine:
B6
B7
B12

Substrate Activity, prometryn:
B8
B9
B10
B11
